# From the supplement of paper PMC12636428
# Test system: Saccharomyces cerevisiae
# Assay: transcriptional activation domain activity (GFP:mCherry ratio, weighted mean of sorted bins, harmonized to initial dataset scale) (arbitrary fluorescence ratio units); higher = stronger transcriptional activation
# Conditions: beta-estradiol 1 µM; induction time 4 h
# Summary of the method: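 In diploid yeast carrying a GFP reporter, barcoded protein tiles fused to an estradiol-inducible synthetic transcription factor were integrated at the URA3 locus. Cultures diluted 1:5 into SC with 1 uM beta-estradiol were kept at 30 °C for 4 hours, then sorted by GFP:mCherry ratio into 8 bins before barcode sequencing. Tiles with under 50 reads were excluded. The activation activity reported here is the read-weighted mean of bin median fluorescence, averaged across barcodes and linearly rescaled to the initial dataset.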
row,Sequence,transcriptional activation domain activity
1,EAKAEEAAPTEAPAADAPAAEPAAEASATEEAKPAEAAKEEKKEDRPKSPSLL,8420
2,PQSEKSFKSAKNAPEKRAEERPRRRKTCARQNMRTNTNAAHTAHATGAITRRI,30100
3,HKRKRTGQEEVAKKPKESRRDKKTRRKRTEPDEEIASADTKERRRKSAGAEKS,20800
4,ELGSFRLLSFRVWCLLGTGSFWGLLYTAIAKMDGYTFGFLLQAHHVLKLLLVS,54400
5,KDYSVEAGIRFLQFIIHKCITVDIGVLCDIIDKVYGSLVIINCLRRYRNLHNL,48500
6,KPLGRQELQRFVALLHSHLETQILEYMHTRRKLSDVVLFLRRTLATCLLLYGC,38100
7,RPFLLNCKDINQFTNLIWERIRITNGTKMYWVWQHLRCVVMFFTLQPNQRILL,83700
8,KEKEKQERDARRREKEGAAAAAAGEKRKVEEGSAGGEAVKKAKVGAAAAAVAA,47800
9,ELGFVEIVQVSPRFGILLLCMTLSMISIIVDLLSVTPVIPIGVINPFWKFAFV,39800
10,MNAQQLSGTRHKKEIKRRTKTGCLTCRKRRIKCDEGHPTCRNCQKSKRECLGY,38600
11,SLPPPRFSPMFSFSLMSYLRCFDYYVCFFFSLFCFFSPALLVEGVVTFFSFIH,60100
12,ENHPPGVAAQILIARISWILWHSVEQIRITVWVVGRKFMMVLLQGTVPRISVR,71600
13,APIILGFSCGVCIHHLLACCIFVMIFIIRIFDPVYIPSMVLLFLCSCLSDRHG,69700
14,MAVNDGFLFVFSCLFFLIFVTLLLTFPFLFFGSSHFHMGNPPVFPLLILISCY,47200
15,MICCDLSFGGKLFCKQLFLLLLVFCAILHYNWRWVYSDVLVMILMLAMIISLA,43600
16,MFCLRSWLPLLFIPTNAPPIFIFIFFFLNFFLSRPCVYCSFLLLILCLTSCYW,36600
17,KGKGRREGGEGGEEREGNRERKRGRGREGKGGKERGNGRGKEGQRKEEREGKG,33500
18,LVLVAILGIVIPLDGFFGYLLTSLAIIWCSYSSSSMFTVVGRMSSMKWLVAYP,57000
19,PGVRGNTESIFLLICNLPYLEHPDKVARTVYKIIWGEHHRNLLRLTYWLHRCP,68200
20,CYVLRDVFFCTVFFAFAGSIEALLQSGFCGYFPLTSTWQIVLLRALMWMTYWW,51000
21,AREIISAGWAKVHDSGSRRNANSQPEEEEEGGWKAKLRELQEEAKAAARGVWG,35300
22,ANPEPTDDDFHIFGGRHVFFTTDDPWLIFLGFILQHLDRLLNRMLFWWCVEWV,56900
23,LFVFLLFVLFLLVLFMLVLLLLFLPLLLLLPLLLWILWILILRLFFSFLDISD,36900
24,MLSLKSFLPLQASLLFAAVGPISLFSLSDDVVRHIFCLKLQIFYLRFLLKWEH,43700
25,MVVFLYLVIYHWSKVNRVSFRCAAFCCIAHLIENVFFVIMVKVKGPSKFCAGI,76900

row,Sequence,transcriptional activation domain activity
1,NISTSVYVLLVCFHPLFLLLLLLLLLLLLLYRFVFAFFFISFFFFFLLLLLLL,25000
2,SKMLTEFKQKLRLDYFMLLDLRLWKDMRMCLRKMFISTLVANLSYKRILGVRF,73200
3,ILVHCIRLWTGFLVACFACLILLICLGACNLEMGIVVWSFCLISAGLHSVAVG,16500
4,MKQHEYFHLGINLFCPPFFILKSYKEAILSLLLAFKILEIWTFFFIFPLFFLF,47800
5,MFMDTLLFVFMHYGWTFFLNCCLWCFMISLCFWYVKFCLPIGCYILILCMWQG,66200
6,PRTASRRAARSARPRRQSSPRPKGRRSNTRPSKRASVSPAKDSDASDGDDERE,19400
7,MTEQPPAIRIADKDGDGPAKRRRRPALSCAECRNRKVRCDRREPCGSCTRLRS,42400
8,YFLLSILFFFFSNNFTFTLLYLLHASYHIQSLYRHILVSVFCNYPSLLLFFFL,53000
9,FVIGMSICRAAPGLYIYCWKENIFFLEPSYKSAAVVLSWVWFQVFLLLSQQFF,59200
10,VHVNDMVGFKFMSDKHEIFSKVLLTDVLKGTLAHQWLGYNVLFSNGSEWHFFR,59100
11,SKDLTRLTLISIMLEKCEGDYSAACVEQYLTVLLKFAVLAVVSDQTLHLSILA,52000
12,ANEYNVVCSILVFWSDTVPLWGFFLIFWFFFLGFQLLGVESFGEAEFWLALLK,62200
13,LHYIYVVAISKSLSRLTLSYYTPAQLAMIGYFNLHIIWLKLMIPWRFFRLWSL,43200
14,MGCILIFSFFSFPTSIKKFLLLSFPFLSFPFPSLLFYLGFFSFLLYILQKFLV,58100
15,SSPVVVSKIEDKNTEDKGADVKKTEESKKEEKTEVKQESKPEEKAEAKSEEKK,29300
16,TGAGTGAFGSTNNTTSNGGIFGSQPPATGNAFGGGGAFGQNKPATGFGAAPST,40200
17,IGIVYLLLCPFAFIFAYYFMRLRRTLIGSMPLSVINDPLLVELKVRFQLLDRG,42000
18,GCWGETWWYTMQFGALLAEGAAQHWLGLLEQKVLPWSRYGMMQKGLRRLFGYV,75600
19,EPSRAGTPAPAPAAGEKKVGEAEGKVAEKAEGEGEGGKGAGEENNGKGKESVK,19100
20,RSSSKKKDASDDEDKHSRRKSSSRKKGSDEEDDKSRHSRSASASKKKDKKSYD,14300
21,MYRCYCGLLMVPWYPCAVVFHVCLCGVRWGCENGVIGVYVLGWWVLWFVVLFG,32600
22,RLVYLMAKNKFGADAQQEFIGDYFRTDSATFRDVRVLFGLLSRSWFGRVWCIQ,52200
23,TSAFGQTNNAASPFGGTSNTAAGGFGSPATGGFGTNTAGGAFGSKPAFGATTT,38300
24,SLSFTPPHSNPPSPSFLLPFPLPFLLPFPPLSFPFPPPFAFPFTPFPPFPFSP,38700
25,YLEWLLLHHIHTIVGRRKDINWHIVCMDRWNIWYNTLRLSDTFALVGIIISIF,58500

row,Sequence,transcriptional activation domain activity
1,SNGTNNSGNMNTNADYESFFNTGTNNSNSNQNPYFLSSRNNSLKFNPEDFDFQ,59100
2,LKDEVMKIKPVQKQTRAGQRTRFKAVVIVGDSNGHVGLGIKTAKEVATAIRAA,81600
3,RVRAAERAGQQAGREGRRGRQRGEHARRGGRAAHERAAQAHHRAPVPVPVRVP,62200
4,MHYTTLLYFIYISFNFFTLILILFFNPFFFVSILSFSFLLFLFCCCSISEVVV,64300
5,MMKTLAQMYPLASFSLFQGLKFFILLALMNECLLLCTALRRWLICTQLPGIYF,49200
6,MGTLLLVFMHYGWTFFLDCCLWWYMMSLGFWYKVCLPLLLLDFHVYCHLWYMI,53600
7,LIVVLILAPHPSLFRMLLRHHLQTLQQPFYFVIHLLVTYTLTFCAFSSLIICA,53700
8,MGFLFLLCVLVVWVFFRAWFFCFLFFLFLFLVLLFRYLFIYFLWSWYGGGSVG,48000
9,IFGSSFFLLCLFNLFFFLFFLSFLSLLFSFFLFFLFFFLFDVFTTVILSSTYG,51800
10,MYNLNLFYFSFFLSLSLFLFFFPLPFFFRSVWFANLFFVLLFLYYVPFLSHSC,58700
11,SSQVARLHQSWQHSIRVPFALVANYDHPLPWLLQHYVPLYMPALLFRFHILTF,50100
12,PQCYNNWKSLLLLQRYLYFVLPPFPVHFLPIFKILCTYIQLLIWFATISLASL,40700
13,MNQTSRFFSPFFSPFFSPFFSPFFLLFFLFSLFLSFPSFLLPCFLLLFLSFYF,48800
14,ALYSLFIECTLAPMLLKAIKDRVGEITLDFCWRAYKVYLTSICYLWKNVSLII,40600
15,KLYYLAFYSGNILRRDLNLIIGVGKNWNLPAFWAPLLRYVTCPILAIIYSMAY,63600
16,NGTPETHGESIDSKRPRACEACRGLKVKCEPDPTNPDGPCKRCTKANRNCVVT,25800
17,MEAKEGRPGNAFACERCRKHKVRCVPSDAPGICQRCQRARAPCIEHVARRRPA,31400
18,MFTWNRMKVLTVHAPCRTGGLARLFYNFCIKHPAMNIAWWIDEILFPLYHLAR,53100
19,LFLFYACVNMIFWRVFMRISYSCPAHLKFFLTVEKWTELVKMTADAIDWLDAH,47800
20,DPNSPLDGDVDELRSREIAAKAVTGTLILLLKWLKLSHVLKFEYVTQLLLDLN,57100
21,FRSGHSFPRKFGFCVEFTYNFISLLFNWFGLVSASIFFFCFSLFLFFVFYVLT,25000
22,FLNRYLGLLGNIPVILEFFGNFTEHMFVFAFCFWLAFTQLVVIALLIIRTYAL,65900
23,MGVWFGMAVLFLFLHLGFFLFCYFICLLLDNSFFLSWPLETVRALQMGLQIGG,36700
24,RKERKREKESERRERHHRRSQTHSSDEARERHRDGKTKQSRSSDRDPRKTRAR,30800
